How the values were obtained:
platelets = assay: in vitro comparison of TNK versus t-PA on platelet activation and surface receptor expression (15 parameters); assay type: cell-based, human; details: TNK 12 μg/mL, t-PA 4 μg/mL, 30 minutes
Protocol: Blood samples for the in vitro study were obtained from 9 healthy volunteers. None of the subjects smoked or had hypertension, diabetes, or an abnormal hematocrit. None had received aspirin or any other antiplatelet drugs. All subjects underwent blood sampling after at least 30 minutes of rest and 2 or more hours of fasting. Blood was drawn from an antecubital vein between 8 am and 10 am in order to avoid any diurnal influence. A 21-gauge butterfly needle was used to draw blood into a tube containing 3.8% sodium citrate (1:9 volume); the first 1.5 mL of free running blood was discarded. One tube was kept as an internal control. A second tube was incubated with tenecteplase (TNK) for 30 minutes at room temperature in order to achieve a final concentration of 12 μg/mL. […]
For the platelet aggregation (PA) studies, platelet-rich plasma (PRP) was first isolated. […] Platelet counts were determined for each PRP sample with a Coulter Counter ZM (Coulter Co., Hialeah, Fla.). […] Platelet aggregation was determined by using a 4 channel Chrono-log Lumi-Aggregometer (model 560-Ca) and expressed as the maximum percentage of light transmittance change (% max) from the baseline at the end of the recording time. […] Platelet aggregability curves were recorded for 6 minutes and analyzed according to internationally established standards (see, e.g., Ruggeri, Z. M. (1994) Semin. Hemat. 31:229-239). […]

[1] = test system: platelet-derived biomarkers; assay: ASSENT-2 platelet substudy: ELISA of platelet-derived biomarkers in plasma of AMI patients; assay type: in vivo, human
Protocol: Forty-one patients with ST-segment elevation AMI enrolled in a single ASSENT-2 site (Rashid Hospital, Dubai, United Arab Emirates) were studied. The inclusion and exclusion criteria of ASSENT-2 have been previously reported ([no authors listed] (1999) Lancet 354:716-722). Briefly, patients included in the trial were between 18 and 70 years of age and were seen within 6 hours of symptom onset with >30 minutes of continuous symptoms. […] After informed consent was obtained, 7 serum samples were drawn. Samples were collected at baseline and at 30-minute intervals during a 180-minute period. Within 15 minutes of sample acquisition, plasma was separated by centrifugation at 800 g for 10 minutes, aspirated, placed in vials, and snapped frozen at −20° C.
Enzyme-linked immunosorbent assay (ELISA) was used according to standard sandwich techniques for CD 31 (sPECAM-1), sVACAM-1, sP-selectin, (R&D Systems Inc. Minneapolis, Minn.), beta-thromboglobulin, Asserachrom® (Diagnostica Stago Inc., Parsippany, N.J.), platelet factor 4 Asserachrom®, thromboxane, and prostacyclin (Cayman Chemical Co., MI). Each sample was measured in duplicate, and the overall intra-assay coefficient of variation was between 3.1%±0.4% and 7.6%±1.0%, with a plasma recovery rate between 89.7% and 98.7%.
For all comparisons, statistical analyses were done by using repeated measures ANOVA. Post hoc comparison was performed by use of the Bonferroni t-test to identify specific differences in platelet aggregation and receptor expression between patients treated with TNK and t-PA, and controls. The Mann-Whitney U test was used to analyze non-parametric data. Normally distributed data were expressed as mean±SE, and skewed data as median (range). Probability values of P<0.05 were regarded as statistically significant. Linear regression analysis was applied to normally distributed data for all study participants by using the Statview 4.1 program for analysis.
In the ASSENT-2 Platelet Substudy, 21 of the 41 patients enrolled received TNK (30-50 mg), while the remaining 20 received t-PA (40-85 mg). There were no substantial differences in baseline characteristics for the AMI patients.

[2] = "accelerated" regimen, GUSTO trial; cited from earlier work

B1: t-PA: recombinant tissue plasminogen activator, thrombolytic agent (Genentech) (protein, UniProt P00750 36-562, looked up)
Tissue-type plasminogen …: SYQVICRDEKTQMIYQQHQSWLRPVLRSNRVEYCWCNSGRAQCHSVPVKSCSEPRCFNGGTCQQALYFSDFVCQCPEGFAGKCCEIDTRATCYEDQGISYRGTWSTAESGAECTNWNSSALAQKPYSGRRPDAIRLGLGNHNYCRNPDRDSKPWCYVFKAGKYSSEFCSTPACSEGNSDCYFGNGSAYRGTHSLTESGASCLPWNSMILIGKVYTAQNPSAQALGLGKHNYCRNPDGDAKPWCHVLKNRRLTWEYCDVPSCSTCGLRQYSQPQFRIKGGLFADIASHPWQAAIFAKHRRSPGERFLCGGILISSCWILSAAHCFQERFPPHHLTVILGRTYRVVPGEEEQKFEVEKYIVHKEFDDDTYDNDIALLQLKSDSSRCAQESSVVRTVCLPPADLQLPDWTECELSGYGKHEALSPFYSERLKEAHVRLYPSSRCTSQHLLNRTVTDNMLCAGDTRSGGPQANLHDACQGDSGGPLVCLNDGRMTLVGIISWGLGCGQKDVPGVYTKVTNYLDWIRDNMRP
- platelet function, 10 of 15 parameters, compared with baseline DPBS values (platelets): diminished platelet function
- P-selectin plasma concentrations, course ([1]; 180-minute period): increase steadily
- plasma levels of PECAM-1 ([1]; AMI patients after thrombolysis): not in t-PA-treated patients
- release of substances from platelets (plasma biomarkers) ([1]; TNK 30-50 mg, t-PA 40-85 mg, 180-minute period): decreased release
- vascular cell adhesion molecule-1 (VCAM-1) release ([1]; after 90 minutes): no marked changes
- concentrations of α-granule constituents ([1]; to a lesser extent than TNK): Decreased concentrations
- benefit in mortality reduction [2]: further benefit

Source: patent US20030180282A1, “Method of treatment of thrombotic events” (priority 2002, published 2003)
